Measured values as given in patent US20240350597A1, “PROTEASE INHIBITORS” (University College Dublin, priority 2023, published 2024).
Entries after “also recorded” stand apart in the source; their conditions may differ.

Test system: SARS-CoV-2 (WT, D614G)
Format: cell-based

Row | Molecule | inhibition of SARS-CoV-2 WT (D614G) infection (in words) | inhibition of SARS-CoV-2 replication / infection (50 µM) [%] | inhibition of SARS-CoV-2 replication | inhibition of viral replication, full time treatment (50 µM) [%] | viral inhibition, treatment limited to viral entry (50 µM)
1 | B3-WT: Wild type recombinant SerpinB3 (SCCA-1), 44.5 kDa cross-class inhibitor of cysteine proteases including CatL; SEQ ID No. 5 (protein, listed as Homo sapiens) MNSLSEANTKFMFDLFQQFRKSKENNIFYSPISITSALGMVLLGAKDNTAQQIKKVLHFDQVTENTTGKAATYHVDRSGNVHHQFQKLLTEFNKSTDAYELKIANKLFGEKTYLFLQEYLDAIKKFYQTSVESVDFANAPEESRKKINSWVESQTNEKIKNLIPEGNIGSNTTLVLVNAIYFKGQWEKKFNKEDTKEEKFWPNKNTYKSIQMMRQYTSFHFASLEDVQAKVLEIPYKGKDLSMIVLLPNEIDGLQKLEEKLTAEKLMEWTSLQNMRETRVDLHLPRFKVEESYDLKDTLRTMGMVDIFNGDADLSGMTGSRGLVLSGVLHKAFVEVTEEGAEAAAATAVVGFGSSPTSTNEEFHCNHPFLFFIRQNKTNSILFYGRFSSP | reductions in SARS-CoV-2 infection | 50 |  |  | 
2 | B3-TMP: SerpinB3 variant with RCL residues 350 to 354 (P4 to P1′) replaced by IQFRV to inhibit TMPRSS2; SEQ ID No. 6 (protein) MNSLSEANTKFMFDLFQQFRKSKENNIFYSPISITSALGMVLLGAKDNTAQQIKKVLHFDQVTENTTGKAATYHVDRSGNVHHQFQKLLTEFNKSTDAYELKIANKLFGEKTYLFLQEYLDAIKKFYQTSVESVDFANAPEESRKKINSWVESQTNEKIKNLIPEGNIGSNTTLVLVNAIYFKGQWEKKFNKEDTKEEKFWPNKNTYKSIQMMRQYTSFHFASLEDVQAKVLEIPYKGKDLSMIVLLPNEIDGLQKLEEKLTAEKLMEWTSLQNMRETRVDLHLPRFKVEESYDLKDTLRTMGMVDIFNGDADLSGMTGSRGLVLSGVLHKAFVEVTEEGAEAAAATAVIQFRVSPTSTNEEFHCNHPFLFFIRQNKTNSILFYGRFSSP | good dose-dependent downregulation of viral replication; also recorded: greater inhibitor for both viral strains than WT-SerpinB3 |  | up to 50% | 93 | up to 70%
